Experimental data as given in US20150344570A1 (published 2015).

B1: GpH7-B3 variant T335_09D/GpL16-k0 (homodimerized antibody, Ho Ab) (antibody, human IgG1, kappa)
heavy: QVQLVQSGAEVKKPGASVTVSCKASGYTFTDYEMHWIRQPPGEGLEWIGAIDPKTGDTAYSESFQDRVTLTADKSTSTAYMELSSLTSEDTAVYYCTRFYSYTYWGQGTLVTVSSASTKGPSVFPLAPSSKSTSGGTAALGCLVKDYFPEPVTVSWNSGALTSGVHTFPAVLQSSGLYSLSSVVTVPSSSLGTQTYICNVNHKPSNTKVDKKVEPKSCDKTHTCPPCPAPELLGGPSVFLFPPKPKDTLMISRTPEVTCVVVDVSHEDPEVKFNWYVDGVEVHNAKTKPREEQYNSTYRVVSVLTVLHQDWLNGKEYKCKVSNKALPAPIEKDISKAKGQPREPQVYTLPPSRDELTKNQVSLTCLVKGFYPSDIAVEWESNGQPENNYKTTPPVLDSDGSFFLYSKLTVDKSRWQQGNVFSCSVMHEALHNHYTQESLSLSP
light: DIVMTQSPLSLPVTPGEPASISCQASESLVHSNRNTYLHWYLQKPGQSPQLLIYKVSNRFSGVPDRFSGSGSGTDFTLKISRVEAEDVGVYYCSQNTHVPPTFGQGTKVEIERTVAAPSVFIFPPSDEQLKSGTASVVCLLNNFYPREAKVQWKVDNALQSGNSQESVTEQDSKDSTYSLSSTLTLSKADYEKHKVYACEVTHQGLSSPVTKSFNRGEC
notes: Anti-glypican-3 IgG1 (G1d with K439E); the alteration stands in both H chains; EU numbering; also called T335_09D Ho Ab; T335D in both H chains
B2: GpH7-B3 variant Y300_06M/GpL16-k0 (homodimerized antibody, Ho Ab) (antibody, human IgG1, kappa)
heavy: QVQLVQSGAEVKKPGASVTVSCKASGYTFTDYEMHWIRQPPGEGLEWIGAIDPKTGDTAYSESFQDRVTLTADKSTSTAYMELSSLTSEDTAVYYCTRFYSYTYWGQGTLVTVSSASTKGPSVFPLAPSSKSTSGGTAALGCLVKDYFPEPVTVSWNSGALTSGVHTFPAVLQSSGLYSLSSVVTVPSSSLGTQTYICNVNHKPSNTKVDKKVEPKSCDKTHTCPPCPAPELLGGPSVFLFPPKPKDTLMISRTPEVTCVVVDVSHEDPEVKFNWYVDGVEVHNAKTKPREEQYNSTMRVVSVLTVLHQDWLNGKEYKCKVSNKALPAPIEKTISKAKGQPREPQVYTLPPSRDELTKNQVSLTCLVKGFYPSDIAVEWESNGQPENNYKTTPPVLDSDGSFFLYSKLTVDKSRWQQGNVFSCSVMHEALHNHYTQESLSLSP
light: B1 light
notes: Anti-glypican-3 IgG1 (G1d with K439E); the alteration stands in both H chains; EU numbering; also called Y300_06M Ho Ab; Y300M in both H chains
B3: GpH7-B3 variant Y300_07I/GpL16-k0 (homodimerized antibody, Ho Ab) (antibody, human IgG1, kappa)
heavy: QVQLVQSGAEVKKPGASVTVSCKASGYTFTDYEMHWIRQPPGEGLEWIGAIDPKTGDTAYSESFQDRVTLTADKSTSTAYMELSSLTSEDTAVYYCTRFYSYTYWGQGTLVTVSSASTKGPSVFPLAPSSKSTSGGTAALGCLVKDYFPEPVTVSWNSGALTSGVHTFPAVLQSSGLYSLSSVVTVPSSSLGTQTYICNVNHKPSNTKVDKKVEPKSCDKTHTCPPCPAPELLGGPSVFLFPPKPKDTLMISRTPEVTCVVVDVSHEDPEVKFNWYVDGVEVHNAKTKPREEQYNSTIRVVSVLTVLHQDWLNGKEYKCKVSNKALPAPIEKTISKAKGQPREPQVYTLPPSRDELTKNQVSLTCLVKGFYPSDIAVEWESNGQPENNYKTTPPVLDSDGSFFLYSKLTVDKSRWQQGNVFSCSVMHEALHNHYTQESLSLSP
light: B1 light
notes: Anti-glypican-3 IgG1 (G1d with K439E); the alteration stands in both H chains; EU numbering; also called Y300_07I Ho Ab; Y300I in both H chains
B4: GpH7-B3 variant Y300_08L/GpL16-k0 (homodimerized antibody, Ho Ab) (antibody, human IgG1, kappa)
heavy: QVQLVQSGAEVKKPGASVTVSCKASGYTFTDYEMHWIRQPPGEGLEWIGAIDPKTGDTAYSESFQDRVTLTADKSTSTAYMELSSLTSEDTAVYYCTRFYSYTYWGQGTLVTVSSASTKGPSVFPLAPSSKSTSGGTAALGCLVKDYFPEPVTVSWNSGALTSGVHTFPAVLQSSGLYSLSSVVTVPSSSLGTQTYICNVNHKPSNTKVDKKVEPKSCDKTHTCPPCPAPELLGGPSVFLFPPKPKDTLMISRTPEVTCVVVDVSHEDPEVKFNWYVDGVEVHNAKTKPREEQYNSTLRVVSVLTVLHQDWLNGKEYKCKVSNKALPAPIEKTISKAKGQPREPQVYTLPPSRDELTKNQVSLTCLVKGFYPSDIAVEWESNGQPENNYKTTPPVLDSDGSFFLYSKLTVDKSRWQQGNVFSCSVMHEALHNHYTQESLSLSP
light: B1 light
notes: Anti-glypican-3 IgG1 (G1d with K439E); the alteration stands in both H chains; EU numbering; also called Y300_08L Ho Ab; Y300L in both H chains
B5: GpH7-A5/GpH7-B3 variant T335_02A/GpL16-k0 (heterodimerized antibody, He Ab) (antibody, human IgG1, kappa)
heavy 1: not shown
heavy 2: not shown
light: B1 light
notes: Anti-glypican-3 IgG1 heterodimer (D356K/H435R chain GpH7-A5 with K439E chain GpH7-B3 variant); the alteration stands in one H chain only; EU numbering; also called T335_02A He Ab; T335A in one H chain
B6: GpH7-A5/GpH7-B3 variant T335_04F/GpL16-k0 (heterodimerized antibody, He Ab) (antibody, human IgG1, kappa)
heavy 1: not shown
heavy 2: not shown
light: B1 light
notes: Anti-glypican-3 IgG1 heterodimer; the alteration stands in one H chain only; EU numbering; also called T335_04F He Ab; T335F in one H chain
B7: GpH7-A5/GpH7-B3 variant T335_05P/GpL16-k0 (heterodimerized antibody, He Ab) (antibody, human IgG1, kappa)
heavy 1: not shown
heavy 2: not shown
light: B1 light
notes: Anti-glypican-3 IgG1 heterodimer; the alteration stands in one H chain only; EU numbering; also called T335_05P He Ab; T335P in one H chain
B8: GpH7-A5/GpH7-B3 variant T335_06M/GpL16-k0 (heterodimerized antibody, He Ab) (antibody, human IgG1, kappa)
heavy 1: not shown
heavy 2: not shown
light: B1 light
notes: Anti-glypican-3 IgG1 heterodimer; the alteration stands in one H chain only; EU numbering; also called T335_06M He Ab; T335M in one H chain
B9: GpH7-A5/GpH7-B3 variant T335_08L/GpL16-k0 (heterodimerized antibody, He Ab) (antibody, human IgG1, kappa)
heavy 1: not shown
heavy 2: not shown
light: B1 light
notes: Anti-glypican-3 IgG1 heterodimer; the alteration stands in one H chain only; EU numbering; also called T335_08L He Ab; T335L in one H chain
B10: GpH7-A5/GpH7-B3 variant T335_09D/GpL16-k0 (heterodimerized antibody, He Ab) (antibody, human IgG1, kappa)
heavy 1: not shown
heavy 2: not shown
light: B1 light
notes: Anti-glypican-3 IgG1 heterodimer; the alteration stands in one H chain only; EU numbering; also called T335_09D He Ab; T335D in one H chain
B11: GpH7-A5/GpH7-B3 variant Y300_06M/GpL16-k0 (heterodimerized antibody, He Ab) (antibody, human IgG1, kappa)
heavy 1: not shown
heavy 2: not shown
light: B1 light
notes: Anti-glypican-3 IgG1 heterodimer; the alteration stands in one H chain only; EU numbering; also called Y300_06M He Ab; Y300M in one H chain
B12: GpH7-A5/GpH7-B3 variant Y300_07I/GpL16-k0 (heterodimerized antibody, He Ab) (antibody, human IgG1, kappa)
heavy 1: not shown
heavy 2: not shown
light: B1 light
notes: Anti-glypican-3 IgG1 heterodimer; the alteration stands in one H chain only; EU numbering; also called Y300_07I He Ab; Y300I in one H chain
B13: GpH7-A5/GpH7-B3 variant Y300_08L/GpL16-k0 (heterodimerized antibody, He Ab) (antibody, human IgG1, kappa)
heavy 1: not shown
heavy 2: not shown
light: B1 light
notes: Anti-glypican-3 IgG1 heterodimer; the alteration stands in one H chain only; EU numbering; also called Y300_08L He Ab; Y300L in one H chain

target: T1, FcγRIIa H (human FcγRIIa, allotype H131, extracellular domain with C-terminal His tag) (human, UniProt P12318 34-217); assay: SPR (Biacore T100), antibody captured on antigen-peptide chip, FcγRIIa H as analyte; relative binding
T1 construct: extracellular domain; Soluble extracellular domain expressed in FreeStyle293 cells; used as analyte in Biacore; also called FcgRIIa H; FcγRIIa type H; not shown: His tag attached to the C terminus
T1 sequence (looked up): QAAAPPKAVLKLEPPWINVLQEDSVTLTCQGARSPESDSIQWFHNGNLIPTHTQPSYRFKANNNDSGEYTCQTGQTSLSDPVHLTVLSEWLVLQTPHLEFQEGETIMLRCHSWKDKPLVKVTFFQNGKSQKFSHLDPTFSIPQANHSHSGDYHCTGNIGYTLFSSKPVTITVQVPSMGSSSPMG
Method: Analysis of interaction between objective antibody and the FcγR was carried out using Biacore T100 (GE Healthcare). HBS-EP+ (GE Healthcare) was used as the running buffer, and the measurement temperature was set to 25° C. Chips produced by immobilizing the antigen peptide by the amine coupling method to a Series S Sencor Chip CM5 (GE Healthcare), or alternatively, chips produced by allowing preliminarily biotinylated antigen peptides to interact with and immobilize onto a Series S Sensor Chip SA (certified) (GE Healthcare) were used. Antibodies of interest were captured onto an antigen peptide-immobilized chip, and allowed to interact to each FcγR diluted with running buffer. To regenerate and repeatedly use the chip, the antibodies captured on the chip were washed off by reacting 10 mM glycine-HCl, pH 1.5.

Row | Ho/Con_2aH | He/Con_2aH | Binder
1 | 110 relative binding activity (control homodimerized antibody GpH7-B3/GpL16-k0 = 100) | – | B1
2 | 106 relative binding activity (control homodimerized antibody GpH7-B3/GpL16-k0 = 100) | – | B2
3 | 122 relative binding activity (control homodimerized antibody GpH7-B3/GpL16-k0 = 100) | – | B3
4 | 115 relative binding activity (control homodimerized antibody GpH7-B3/GpL16-k0 = 100) | – | B4
5 | – | 101 relative binding activity (control heterodimerized antibody GpH7-A5/GpH7-B3/GpL16-k0 = 100) | B5
6 | – | 103 relative binding activity (control heterodimerized antibody GpH7-A5/GpH7-B3/GpL16-k0 = 100) | B6
7 | – | 108 relative binding activity (control heterodimerized antibody GpH7-A5/GpH7-B3/GpL16-k0 = 100) | B7
8 | – | 103 relative binding activity (control heterodimerized antibody GpH7-A5/GpH7-B3/GpL16-k0 = 100) | B8
9 | – | 106 relative binding activity (control heterodimerized antibody GpH7-A5/GpH7-B3/GpL16-k0 = 100) | B9
10 | – | 107 relative binding activity (control heterodimerized antibody GpH7-A5/GpH7-B3/GpL16-k0 = 100) | B10
11 | – | 105 relative binding activity (control heterodimerized antibody GpH7-A5/GpH7-B3/GpL16-k0 = 100) | B11
12 | – | 108 relative binding activity (control heterodimerized antibody GpH7-A5/GpH7-B3/GpL16-k0 = 100) | B12
13 | – | 108 relative binding activity (control heterodimerized antibody GpH7-A5/GpH7-B3/GpL16-k0 = 100) | B13
